Earlier results as cited in paper PMC5156371.
Several values for one entry are separate records, joined by “and”; a condition that tells them apart may be missing. Identical values can stand only once. Like-named read-outs stand apart in the source and are kept apart here.

Legend:
[1] = target: MyD88 TIR (Homo sapiens) (UniProt Q99836)
[2] = target: MAL TIR (Homo sapiens) (UniProt P58753)
[3] = target: MyD88 TIR (Homo sapiens) (UniProt Q99836); remark: listed apart in the source
[4] = target: MAL TIR (Homo sapiens) (UniProt P58753); remark: listed apart in the source

Question: With A46 1-229 (from UniProt P26672) as the substance, how does the Kd [1] read?
Answer: The Kd was 460 nM and 520 nM.

Question: What about the Kd [2] of the same substance?
Answer: Its Kd is 1440 nM and 1560 nM.

Question: Which results are given for A46 87-229 (from UniProt P26672)?
Answer: Kd [3]: 890 nM and 1240 nM; Kd [4]: 2300 nM and 2240 nM
